Test: yeast display, Sf9 membrane polyspecificity reagent, FACS + sequencing; frameworks hold sequencing errors
In short: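 Galactose induction of a Saccharomyces cerevisiae BJ5465 synthetic nanobody display library ran 36–48 hours. The cells were then stained for 1 hour at 4 °C with 10% biotinylated, detergent-solubilized Sf9 membrane reagent, pulled down on streptavidin microbeads and FACS-sorted into low and high (top ~1%) gates on expression and reagent-binding fluorescence. Labels for polyreactivity follow the gate of origin.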

| Sequence | polyreactivity (PSR sort gate) |
| --- | --- |
| QVQLVESGGGLVQAGGSLRLSCAASGRTFGHNAMGWYRQAPGKEREFVAAITYSGVRTFYADSVKGRFTISRDNAKNTVYLQMNSLKPEDTAVYYCATDWRRDYDYWGQGTQVTVSS | low polyreactivity |
| QVQLVESGGGLVQAGGSLRLSCAASGITFWVYAMGWYRQAPGKERELVAAISRRGGSTSYADSVKGRFTISRDNAKNTVYLQMNSLKPEDTAVYYCAATTYTHPYGYWGQGTQVTVSS | high polyreactivity |
| HLQLVESGGGLVQAGGSLRLSCAPSGRILRDYDMGWYRQAPGKERELVAAINWSDGSTYYADSVKGRFTISRDNAKNTVYLQMNSLKPDDTAVFYCAASRWRPLERGTSWLHDYWGQGTQVTVSS | low polyreactivity |
| QVQHVESGGGLVQAGGSLRLICAASGSTFYYNAMGWYRQAPGKERELVAAISFSGGSTYYADSVKGRFTISRDNAKNTVYLQMNSLKPDDTAVYYCNRVYYAFYVYYYSTYDYWGQGTQVTLSS | low polyreactivity |
| QVQIVESGGGLVQAGGSLRLSCAASGGTFYLYAKGWYRQAPGKERELVAAITTSGGSTYYADSVKGRFTISRDHAKNTVYLQMNSLKPEDTAVYYCNKDLSSTKFDYWGQGTQVTVSS | low polyreactivity |
| QVQLVESGGGLVQAGGSLRLSCADSGSIFDQYTMGWYRQAPGKERELVAGISSGGITNYADSVKGRFTISRDNAKNTVYLQMNSLKPEDTAVYYCAADNWYLAEYDYWGQGTQVTVSS | low polyreactivity |
| QVQLQDSGGGLVQAGGSLRLSCAASGTISYRYRMGWYRQAPRKELELVAGISFGSITYYADSVKGRFTISRDNAKNTVYLQMNSLKPEDIAVYYCAVYQKSYRFFPYWGQGTQVTVSS | high polyreactivity |
| QVQLVESGGGLVQAGGSLRLSCAASGITFSRYTMGWYRQAPGKERELVAGISSRGGSTYYADSVKGRFTISRDNAKNTVYLQMNSLKPEDTAVYYCAADGEHYPWYYYWGQGTQVTVSS | high polyreactivity |
| QVQLVESGGGLVQAGGSLRLSCAATGSTFDRYGMGWYRQAPGKERELVAAINSGDITNYADSVKGRFTISRDNAKNTVYLQMNSLKPEDTAVYYCNAGIRYFVVGRSSYDYWGQGTQVTVSS | low polyreactivity |
| QVQLEESGRGLVQAGGSLRLSCAASGSTCYDYAMGWYRQAPGKERELVAASSRIGARTYYADSVKGRFTISRDNAKNTVYLQMNSQKPEDTAGYYCAATRVYSDYKYWGQGTQVTVSS | high polyreactivity |
| QVQLVESGGGLVQAGGSLRLSCAASGRTFLVYARGWYRQAPGKERELVATIRASTGSTYADSVKGRFTISRDNAKNTVYLQMNSLKPEDTAVYYCAAQPRYRHQTYNYWGQGTQVTVSS | high polyreactivity |
| HVQLVESVGGLVQAGGSLRLSCAASGSTFFYNAMAWYRQAPGKERELVAAITVTGNSTYYADSVKGRFTISRDNAKNTVYLQMNSLKPEDTAVYYCNTSLKRRRLRFNYWGQGTQVTVSS | low polyreactivity |
| QVQLVDSGGGLVQAGGSLRLSCAASGSIFAYYTIGWYRQAPRKERELVAAITSGGSTNYADSVKGRFTISRDNAKNTVYLQMNSLKPEDTAVYYCAVQGSRYSYRYGYRFRTMDYWGQGTQVTVSS | high polyreactivity |
| QDQHVESGGGLVQAGGSLRLICDASGGIFGTNDMGWYRQAPGKERELVAAITSDSGATYYADSVKGRFTISRDNAKNTVYLQMNSLKPEDTAVYYCAAEDGPWFYRYGYWGQGTQVTVSS | low polyreactivity |
| QVQLVESGGGLVQAGGSLRLSCAASGITFPRNAMGWYRQAPGKERELVAAISARGGNTYYADSVKGRFTISRDNSKNTGYLQMIRLKPEDTAVYDCNALGSSFSEPSEYDYWGQGTQVTVSS | low polyreactivity |
| QVQLEESGGGLVQAGGSLRLTCAASGSTFVRYVMGWYRQAPGKERELVAAISRRGGSTYYADSVKGRFTISRDNAKNTVYLEMNSLKPEDTAVYYCARTVGYRTLLESDSWGQGTQVTVSS | high polyreactivity |
| QVQLQESGGGLVQAGGSLRLSCAASGSIFTQATMGWYRQAPGKERELVAAINFGSSTYYADSVKGRFTISRDNAKSTVYLQMNSLKPEDTAVYYCAVRALWYDFHDYWGQGTQVTVSS | high polyreactivity |
| QVQLVESGGGLVQAGGSLRLSCAASGRIFANYAMGWYRQAPGKERELVAGITTGGSTYYADSVKGRFTISRDNAKNTVYLQMNSLKPVDTAVYYCAVRWRNRLYYYWGQGTQVTVSS | high polyreactivity |
| QVQLVESGGGLVQAGGSLRLSCAASGFIFGANTMGWYRQAPGKERELVATISWSGGSTYYADSVKGRFTISRDNAKNTVYLQMNSLKPEDTAVYYCAAPGVTYGFRSDYWGQGTQVTVSS | low polyreactivity |
| QVQLVESGGGLVQAGGSLRLSCAASGRIFGAYAMGWYRQAPGKEREWVAVINWRSGGTYYADSVKGRFTISRDNAKNTVYLQMNSLKPVDTAVYYCAADDYGFFSAGDFDYWGHGTQVTVSS | high polyreactivity |
| QVHLVESAAGLVQAGGSLRLSCAASGSTFIGNAMVWYRQAPGKERELVAAITRSGGTTYYADSVKGRFTISRDNAKNTVYLQMNSLKPEDTAVYYCNKTHFFGYDSWGQGTQVTVSS | low polyreactivity |
| QVQLVESGGGLVQAGGSLRLSCADSGRTFQRHARGWYRKAPGKEREFVAAISKSGGRTYYADSVKGRFTISRDTAKNTVSLQMNSLKPEDTAVYYCNRGSTHDLSHPELYGYWGQGTQVTVSS | high polyreactivity |

| Sequence | polyreactivity (PSR sort gate) |
| --- | --- |
| QVQLVESVGGLVQAGGSLRLSCAASGRTFVLNTMGWYRQAPGKERELVAAISKSGGSTYYADSVKGRFTISRDNAKNTVYLQMNSLKPEDTAVYYCAARTRQLEYNSWGEGTQVTVSS | high polyreactivity |
| QVQLVESGAGLVQAAGSLRLICASSGFILLDKAMGWYRQAPGKEREFVASINISGARTFYADSVKGRFTISRDTAKNTVYLQMNSLKPEDTAVYYCAKEPGWGRRSTTAYDYWGQGTQVTVSS | low polyreactivity |
| QVQLVESGGGLVQAGGSLRLSCAASGRTFSAYAMGWYRQAPGKERELVARITSVDSTNYADSVKGRFTISRDNAKNTVYLQMNSLKPEDTAVYYCNATFGYPCVDYDDYWGQGTQGTVSS | low polyreactivity |
| QVQLVESGGGLVHAGGSLRLSCAAWSIFYLNAMGWYRQAPGKERELVAAISSAGSTYYADSVKGRFTISRDNAKNTVYLQMNSLKPEDTAVYYCAAYWYDSPGVTEIWYDYWGQGTQVTVSS | low polyreactivity |
| QVQLVESGGGLVQAGGSLRLSCAASGGNFVFNAMGWYRQAPGKERELVAVITYSGGRTYYADSVKGRFTISRDNAKNTVYLQMNSLKPEDTAVYYCNARYGYPLGHSIYYYWGQGTQVTVSS | low polyreactivity |
| QVQLVESGGGLVQAGGSLRLSCAASGSIFSKYAMGWYRQAPGKERELVAAITFRSGSTYYADSVKGRFTISRDNAKNTVYLQMNSLKPEDTAVYYCAADEYYQVSAYDYWGQGTQVTVSS | low polyreactivity |
| QVQLVESGGGLVQAGGSLRLSCAASGRTFRHNAMGWYRQAPGKERELVAAISSSGTNTHYADSVKGRFTISRDNAKNTVYLQMNSLKPEDTAVYYCAADRWGARRKQYHENGYWGQGTQVTVSS | high polyreactivity |
| QVQLGESGGGIVQAGGSLRLSCAASAFIIKYYAMGWYRPAPGKETELVAAIDGSSASTYYADSVKGRFTISRDNAKNTVYLQMNSLKPEDTAVYYCAVARLRRGGVQYGYWGQGTQVTVSS | high polyreactivity |
| QVQLVESGGGLVQAGGSLRLSCAASGFTFGYYAMGRYRQAPGKERELVATITSSGASTYADSVKGRFTISRDNAKNTVYLLMNSLKPEDTAVYYCAADRLPSYWSWYGYDYWGQGTQVTVSS | high polyreactivity |
| QVQHVESGGGLVQAGGSLRLSCAASGSYLRYYAMGWYRQAPGKERELVAAISRSGTNTYYADSVKGRFTFSPDNAKNSVYLQMNSVKPEVTAVYYCAARGYYRDYDSWGQGTQVTVSS | high polyreactivity |
| QVQLVESGGCLVQAGGSVRLSCDASGITFVGNDMGWYRQAPGKERELVAAISSGSTHYADSVKGRFTISRDNAKNTVYLLMNSLKPEDTAFYYCAADIRGGLSNYSPKDYDYWGLGTQVTVSS | low polyreactivity |
| QVQLVESGGGLVQAGGSLRLSCAASGSTFAYYAMGWYRQAPGKERELVAAIDDTGSTNYADSVKGRFTISRDNAKYTVFLQMNSLKPEYTAVYYCNAQPDGTYDYWGQGTQVTVSS | low polyreactivity |
| QVQLVESGGGLVQAGGSLRLSCAASGSTFYGNAMGWYRQAPGKERELVAAITWGDASTYYADSVKGRFTISRDNAKNTVYLQMNSLKPEDTAVYYCAADFYYAYYWGQGTQVTVSS | low polyreactivity |
| QVQLVESGGCLVQAGGSLRFICAASGRIFDDNAMGWYRPAPGKERELVATISSTGGRTYYADSLKGRFTISRDNAKNNVYLQMNSLKPEDTAVYYCAARRRQGGYYYWGQGTQVTVSS | high polyreactivity |
| QVQLVDSGGGLVQAGGSLRLSCAASGNIFVGNAMGWYRQAPGKERELVAAIRRSGGTTYYADSVKGRFTISRDNAKNTVYLQMNSLKPEDTAVYYCAASRPYQGDYWGQGTQVTVSS | low polyreactivity |
| QVQLVESGGGLVQAGGSLRLSCAASGFIFGYNAMGWYRQAPGKERELVAAISGSGGRTYYADSVKGRFTISRDNAKNTVYLQMNSLIPEDTAVYYCAVADRRGLGYWGQGTQVTVSS | high polyreactivity |
| QVQLVESGGGLVQAGGSLRLSCAASGFIIGVYAMGWYRQAPGKEREFVAAISLTGGSTSYADSVKGLFTISRDNAKNTVYLQMNSLKREDTAVYYCAADAWFWVRWGENYWGQGTQVTVSS | low polyreactivity |
| QVQLVESGGGLVQAGGSLRLSCAASGSTFVVYAMGWYRQAPGKERELVAAIDLSVGDTYYADSVKGRFTISRDNAKNTVYLQMNSLKPEDTAVYYCAAEFYSYKYPDYDYWGQGTQVTVSS | low polyreactivity |
| QVQLVESGGGLVQAGGSLRLSCAASGRIFPYYAMGWYRQAPGKERELVATISSGGRTNYADTVMGRFTISRDNAKNTVYLQMNSLKPEDTAVYYCAADYRKSRVFYGLYYWGQGPQVTVSS | high polyreactivity |
| QVQLVESGGGLVQAGGSLRLSCAASGRIFKRNAMGWYRQAPGKERELVAAITGNVGSTYYADSVKGRFTISRDNAKNTVYLQMNSLKPEDTAVYYCAAYVQYSSIVGYGYWGQGTQVTVSS | high polyreactivity |
| QVQRVESGGGLVQEGGSLRLSCAASGITFAGYAMGWYRQAHGKERELVAAISTRGGSTTYADSVKGRFTISLDNAKNTVYLQMNRLKPEDTAVYYCAADSYYRRYFGWYEYWGQGTQVTVSS | high polyreactivity |

Reference: the nanobody polyreactivity screen of Harvey et al. (2022)
